The target of the data set is Matrix protein-1 (M1) (Influenza A virus) (UniProt B4URD8). To be noted: low-density aptamer microarray, 50x dilution.

As for tRNA, the binding signal (fluorescence units) was -55.
